# Tests used:
# [1] = molecular target: Retromer (His10-SNAP-VPS26/VPS35/VPS29 trimer, AF488-labeled) (human) (UniProt O75436)
# [2] = molecular target: Retromer (His10-SNAP-VPS26/VPS35/VPS29 trimer, AF488-labeled) (human) (UniProt O75436); remark: listed apart in the source
substance,measurement,setting,value
"Retromer (His10-SNAP-VPS26/VPS35/VPS29 trimer, AF488-labeled) (from UniProt O75436;Q96QK1;Q9UBQ0) (complex)",percent of particles that are dimers,[1],35%
same,percent of particles that are monomers,[1],18%
same,percent of particles that are pentamers or higher-order oligomers up to ten,[1],10%
same,percent of particles that are tetramers,[1],13%
same,percent of particles that are trimers,[1],24%
same,mean Retromer complexes per cluster (Retromer complexes per cluster),[2],2.7

# — article doi:10.1101/2020.03.31.018150
